Source: the DeepSol protein solubility set

Assay: soluble on expression in E. coli; label from the status in PepcDB or PDB records

In the case of “MSEKPAESAAAVADSATTTAPQSGKPETALPALIDTQATAETRALYRNLAKLRYKHLLFGHEDSLAYGVHWEGDMDRSDVRDVTGANPAVYGWELGGLELGHTANLDAVNFEKMQHWIKAGYSRGGVITISWHVFNPVSGGNSWDKTPAVHELIPGGARHATLKAYLDTFVAFNEGLADVDAQGNKHYPPIIFRPWHEHNGDWFWWGKGHASEQDYIALWRFTVHYLRDEKKLRNLIYAYSPDRSRIDMANFEAGYLYGYPGDAYVDIIGLDNYWDVGHEANTASADEQKAALTASLKQLVQIARSKGKIAALTETGNNRLTIDNFWTERLLGPISADADASEIAYVMVWRNANLAREKSEQFFAPFPGQATADDFKRFYQSEVVLFEDELPPLYR”, the “soluble on expression in E. coli” value is reported as “soluble”.
In the case of “VSQRPFRDRVLHLLALRPYRKAELLLRLQKDGLTQADKDALDGLLQQVANMSAKDGTCTLQDCMYKDVQKDWPGYSEGDQQLLKRVLVRKL”, the “soluble on expression in E. coli” value is reported as “soluble”.
For “GPGSMSKYANPDYWEERYRSNDTTFDWYLTFDNLEPVLRPMLQPAEQIHVLVVGCGNSRLSPCMYEHLNVRKITNVDVSPTVISQMTRRYKGMDEMRWICCDLIHTAPDKLLTLLCPEDALFDFVIDKGLVDATLGGSNSFHNLYTLTKNLARVMKNGGRFLSVSYGAPETRIDHFRRRKLNFDVEHRTIEKSVFASGAAPTGSYHVYIMTKLGERQAVTAGAADDGALSGDTDDDDDFYDRFMTKANTTSADAARFD”, the “soluble on expression in E. coli” value was “soluble”.
In the case of “MGSDKIHHHHHHGASEVMWKDFRNEKTIDTVYLGSSFSQVTFNPYIIDEKLGWKSFNMGTPAQPLDQSYVALQNAIKEKKIKRAVLAYGIPTMEDTQNDNARITFAHAMKYGCSWKQKVKMDWDFITDKENINTESSINYLFPWISNSIEWTKTAIENNIKLKKHNNDATENMKTTEWYASYIGKGYAPILTGGFDYKNAITDNTKANYNCIISETAYCKLEKICRLCKDNEVEFIIVNTPKAPYDISMYGADEYFAINSRIEEICTKYGFSYYDFNLIKPQIFQICPEYLNNYEHLSKAGSEAFCNAFSNFIRLHDSGECMTNYFYNEEEYLDSVKDIVQCIKE”, the “soluble on expression in E. coli” value is reported as “not soluble”.
For “SLQIKKLFIALGIVLPLHMQGQNFLIKDAPEVIESYVNQFNREDNELYKQDIPNCGASDFLRKNIPFFECPDKELEKTYYFRWWTYRKHIKKTPDGFVITEFLPDVPWSGKYNTISCAANHHFYEGRWLRNAEILSDYASFWFSGSGNPRLYSFGAADAIYNYYLIHNDKMLLADLYPKLKDNFAKWEEEKRDSTGMFWQVDDRDGMEMSVSGHLSEGGRGYRPTINSYMYGEAVALAKIASIVDRDMEARTYQKKADKLKGIINRRLWDKQADFYKVIPLNGKMEFSYARELLGYIPWFYNIPPDNYSIAWKQLFDSKGFEAAYGPTTVEQRCPDFKISYEGHECQWNGPSWPYLTSMTLAAMANYFNSYDSPIITKKDYLSLLNIYSNSHRILSVNNDTICWIDENINPYTGDWISRTRLKSWKNGTWDDSKGGVERGKDYNHSSFCNLIISGLMGVRPQEDGSIIINPLVPDGCWDYFCLDNVYCQGKTITIIFDKKGKKYGRGKGFIVYVDDKCLSHTTRVQKVVIR”, the “soluble on expression in E. coli” value was “not soluble”.
In the case of “MSLGREKGLSTFLFLLLFSISLHAQRQDILLNNNWNFRFSHQVQGDTRRVDLPHTWNAQDALAGKIDYKRGIGNYEKALYIRPEWKGKRLFLRFDGVNSIADVFINRKHIGEHRGGYGAFIFEITDLVKYGEKNSVLVRANNGEQLDIMPLVGDFNFYGGIYRDVHLLITDETCISPLDYASPGVYLVQEVVSPQEAKVCAKVNLSNRAADGTAELQVLVTDGTKVICKESRNVSLKQGADILEQLPLLIQKPRLWNGCEDPFMYQVSISLHKDGKQIDSVTQPLGLRYYHTDPDKGFFLNGKHLPLHGVCRHQDRAEVGNALRPQHHEEDVALMREMGVNAIRLAHYPQATYMYDLMDKHGIVTWAEIPFVGPGGYADKGFVDQASFRENGKQQLIELIRQHYNHPSICFWGLFNELKEVGDNPVEYVKELNALAKQEDPTRPTTSASNQDGNLNFITENIAWNRYDGWYGSTPKTLATFLDRTHKKHPELRIGISEYGAGASIYHQQDSLKQPSASGWWHPENWQTYYHMENWKIIAERPFVWGTFVWNMFDFGAAHRTEGDRPGINDKGLVTFDRKVRKDAFYFYKANWNKQEPMIYLAEKRCRLRYQPEQTFMAFTTAPEAELFVNGVSCGKQKADTYSTVVWKNVKLTSGENIIRVTTPGKKPLTDEVTVEYKEDREGHHHHHH”, the “soluble on expression in E. coli” value is reported as “not soluble”.
For “PDQCKPPQVTCRSATCAQVNWEVPLSNGTDVTEYRLEWGGVEGSMQICYCGPGLSYEIKGLSPATTYYCRVQALSVVGAGPFSEVVACVTPPS”, the “soluble on expression in E. coli” value was “soluble”.
With “MKAKTLGELRRTYPLEKLRRTVKDEARENLREKLRRGERLFPGIHGYEDTVIPALVQAILAKQNFILLGTRGQAKSRILRSLTSLLDEEVPALATELRDNPLHPISPEGKRLLEEAGDDAPIVWLSREDRYVEKLATPDTTVADLLGDMDPIKAARRGTGMADLESIHYGLLPRANRGIFAVNELADLAPKVQVALFNILEEGDVQIRGYPLRLPLDVWLVFTANPQDYTARGRIVTPLKDRIGSEIRTHYPRSLEEGARISAQEAYVPEGVLVPEWVRLSVEAVAFVAREDRRVDQTAGVSQRLAISLLEVVAASAERRALLHGGRPVARPLDLYQGLPAITGKLELEYEGELQGAERVAREIVQRAFGLVLPRYRLRTEPIVAHFEEGNLLTLPEGDVEEALKAMAGVPGLLEAARALAEGEAPEVLLSAGEFVLEGLVGRRKLSRGEATYQAAERPRSYGN” the “soluble on expression in E. coli” value was “soluble”.
For “MKSVQDALYNWLTIHIVAKARPHDAAARDTASFFRAILENDFGVTAVDAVKDETNGQYIVEYVRGGETRAACFPLELAEAMWRQIEAEPEKYG”, the “soluble on expression in E. coli” value was “not soluble”.
In the case of “MIGATGSGGTGGHNDVVRQGFICPFCMEDFGEYERLICHVENDHPEEDSSDLAGMFVSNVKGFFDKAKRGIQKLDAKKSIADLASNVETEFTETTEKLVERAPLPRIPKPLPPDEILPGTRRSKTREFLSTRELNINEVAVRTNMLIIRLDRLINGGPKDKDPVKRKEFEREVVPWLDDAEAVCCPLCASRFGLTRRRHHCRLCGRVLCHSCSKFLSFDTAKTLTSSSNPLGDTHIIVEEPNTVENEQELLQPEENGRRSFFSLSQKSMDKMKRAMAGAVQKVHSAATGEEIIAGALNEQDLSEHMRVCNLCLRDLHFRESQMDKKEPPEFVQQYDLMKVMIEEVKNLVPTYVRVVTSLKNGESVYSHKHGEELRSKCLEIQKSIDYVSKKIAEGANDKPNSAKEQQLRKNIRLYAVQALQGLIGQMESLPTAEECSNLIIKRKERRAKDFARVNRTVMKMSSSMPQLQEQHSHLNSTSSVSSFGGPSSIDDGWSAEDNDLVFEPSSIEDDTIQTDHPLYEQREQLRKFLFQASATGKLDEMDILERNLKEIEEEMMRLGLSC”, the “soluble on expression in E. coli” value is reported as “not soluble”.
For “MNVVRYTPWPGQAALQNEIKQVFDRFFEHNGDTDESAVVTAQWVPRVDIKEEPNQFVLYADLPGIDPADIEVQMDKGILSIKGERKTESSSQTEHFSRIERRYGSFHRRFALPDSADADGITASGSHGVLRILIPKQAATTPRRIQVGNAVSSDVALQSMLEHHHHHH”, the “soluble on expression in E. coli” value was “soluble”.
With “MGSDKIHHHHHHMSIFFKPPIDIEILFDNEESRKHVDIATRSSNSSYKSMKESLPVYEDGESLGGIVTLRVRDSKKVDHLGIKVSVIGSIDMLKSHGSGNSSSKKVTSSTSSSSSNGSVDVRKNSVDQFLCQSYDLCPAGELQHSQSFPFLFRDLSKRYESYKGKNVDVAYYVKVTVMRKSTDISKIKRFWVYLYNSVTTAPNTLSANETKATTNDIAGGNYAADNASDNTQTKSTQGEAADVNQVLPISHSNNEPKPVRLDIGIENCLHIEFEYAKSQYSLKEVIVGRIYFLLTRLRIKHMELSLITRESSGLQTSNVMTDSTAIRYEIMDGSSVKGETIPIRLFLSGYDLTPNMSCNYFNVKNYLSLVIIDEDGRRYFKQSEITLYRTR” the “soluble on expression in E. coli” value was “not soluble”.
In the case of “MGSDKIHHHHHHMEISMRFTDINQERERILSCPVPGYFPRKDSFLELERLIGLREVKRTLAEVAAFTLIQNRRSELRLKSDPTALHMVFKGNPGTGKTTVARILGRVFNEIGILSKGHLLEVERADLVGEYIGHTAQKTREILKRAMGGIVFIDEAYSLAQGGERDFGKEAISTLVKAMEDYRDNLVVILAGYSQEIDRFLKSNPGLRSRFPIHIDFCDYNAEELFQIALQIYQEREYELTSRCRWKLKQQLNEFVKNRHSHSGNARYVRNLAEKSIRLQALRIVDKDAPVRRDLVTIEEADLPDPRSIQA”, the “soluble on expression in E. coli” value is reported as “not soluble”.
For “MRNIMEQYTEKPEILMLTQQSLQSENFKEMLSKNTETKITIIDAKNPSYHELIPDRYFLLVDFSVDTPSDTLVYLKDSNKVLGTIMLNLGYDLDTEELASWPHVKGIFGPLDSMEKVCRGLGAIVKGDNWLSRRLLDQLVNYYKGKESNNVSEP”, the “soluble on expression in E. coli” value was “not soluble”.
For “MGSDKIHHHHHHMKAAVYEGKKAIKMTELPTPKAGPNDVVIQNIYAGICGSDVAVYNHGSGTGHKIETDHEFGHEAVSKVVEVGDDVHDFKIGDRVYPYPLLARGDPSRAGSMGGFSEYILIPNAKLNRQLYLVPKEIDNHVAAMIEPFTVGTRAAKQTRPDKNDNAIVYGTGTIGMAAAVALKHLGVKQVMLVDLSDYRLNVAKELGFLTVNSSRDDVRSQAIEAFGKAEYSLHGEAPDTQIFLDAAGHNSILEDFLQFGPVGSRFVTVGVNNSKPQIDFLELIFGSKSVGGSGGYRPEDVQTVFEIMKERQSDLRKMVSQEFDWQDLEKGIQTATDTTISEKVLINYHL”, the “soluble on expression in E. coli” value was “not soluble”.
With “MTAETNYFWLNCGYNRWNHNEPLVGQTALFESGAHFNPSQGFRAFKKAKVGDQVIFYQVQTDTGLLGCGEIISVETGAQNKIRVQFRFNEQLKPLTADYLKRSEALEFRMSNMKETLFNQITAEEFDLISGLGKGEIKIPRYFFLAETEEFEPGNQYTIYTHTYNGIKRNGYHFYTQLEEGDNIIFYNRTKNQSVVGIGEVSKHIHEKPPIPGRTNSTVIEVSYEKDITPITLSTLNKHPKLKNLYFLQENAKQAIASMSQAQYDAIIEMSDNNGLKSPFEMVKKPDMLESEKEEALKPFILLVVDRKEEGLKAANDLLQKANANPVITTGHPDFSEDMLYGKYLPNETGALYYREGFITQLMPKKDKSYLVIDNFNRIDTDIFQTYINVLEGYEVTLPRYNKDGNMIKWSRQKDSFYYFNPNWHIVGITYDSLEEIKEKYSEQFLKYTRIVKVKHD” the “soluble on expression in E. coli” value was “not soluble”.
For “MRIQIGELIRSGVLELGDGYRTKRSELSQFGYAIVRAGDVVEIGVTASDSEFVDQRFDKAIGRKTVRLGDVVITTKGTVGRVAEVSKVPNAGLAVYSPQVCYLRSLQPSILHQRYLKYLLMSPATKYSISTFASSSDMAPYLSLSDFKSMVVDLPSLEDQRAIADVLGALDDKIAENQRVIQLSEQLAMTFYRSTEKSESSLTFADVAGIYGGGTPSTKNPDFWDGEIRWATPTDITALKGPWLCGTARSITEEGLSKSSGSLHPEGSILMTSRATVGHVAFIDAPTTTNQGFINLVPQEAYRYWLYFQLKQRTSEFIAWANGATFLELSRGTFKKLPFQACAETELEKFNSVVAPLMKRVLKAQKENQVLAATRDELLPLLMNGKITVAEAKEAAGDVGVVKQNQQEEGDSSV”, the “soluble on expression in E. coli” value was “not soluble”.
For “MDSDPLGVFPNSPKYHPYYSQTTEFGGVIDLGLSLRTIQHEIYHSSGQIMTCGKGYCSNEGYRRKWGYVKVTMDGLVVGRKVCVLDHGSYSTLAHQLEDMFGMQSVSGLRLFQMESEFCLVYRDEEGLWRNAGDVPWNEFIESVERLRITRRNDAVLPF”, the “soluble on expression in E. coli” value was “not soluble”.
With “TKDFTWTTDFNIAFNNNKITSYPQKEEVVGTKIRTVGYSIYEFYMQEWAGVDPVNGDPLWYMDVTDDKGNPTGERTTTNTYSKATKYKLGSALPSATGGLTNTVSWKGVDFSFMFTYGFGGKIYDVYEENLLNDGNKTGYQLITEQADSWTPENTNASNPKFIPNNSNTSNGRSSRYLHNADFIKLKNISLGYSLPKSLIKKNLLQNVRIYVSADNLITWNLDKKFKSYDVELGGVDGLLDGGGTVPLARTFTAGINLTF” the “soluble on expression in E. coli” value was “not soluble”.
